Results from patent US7888089B2, “eNOS mutations useful for gene therapy and therapeutic screening” (Yale University, priority 1999, dated 2011).

Biological target: T1, Akt (Homo sapiens, UniProt P31749)
T1 construct: host or cells: baculovirus-infected SF9 cells (Akt); peptides synthesized at the W. M. Keck Biotechnology Resource Center
Experiment: In vitro phosphorylation of eNOS peptides (1174-1194) by recombinant Akt
Format: biochemical
Settings: n=5
Procedure: In studies identifying the labeled eNOS peptide, immunoprecipitated Akt was incubated with recombinant eNOS as above. The sample was run on SDS-PAGE, and the eNOS band digested in gel, and the resultant tryptic fragments purified by RP-HPLC. Peptide mass and ^32P incorporation were monitored and the prominent labeled peak further analyzed by mass spectrometry. In other experiments, peptides corresponding to the potential Akt phosphorylation site were synthesized, purified by HPLC and verified by mass spectrometry (W. M. Keck Biotechnology Resource Center, Yale University School of Medicine). The wild-type peptide was 1174[…]1194 (SEQ ID NO:2) and the mutant peptide was identical except S1179 was changed to an alanine. In vitro kinase reactions were essentially as described above incubating peptides (25 mg) with recombinant Akt (1 mg). Reactions were then spotted onto phosphocellulose filters and the amount of phosphate incorporated measured by Cerenkov counting.

T1 sequence (P31749 whole entry): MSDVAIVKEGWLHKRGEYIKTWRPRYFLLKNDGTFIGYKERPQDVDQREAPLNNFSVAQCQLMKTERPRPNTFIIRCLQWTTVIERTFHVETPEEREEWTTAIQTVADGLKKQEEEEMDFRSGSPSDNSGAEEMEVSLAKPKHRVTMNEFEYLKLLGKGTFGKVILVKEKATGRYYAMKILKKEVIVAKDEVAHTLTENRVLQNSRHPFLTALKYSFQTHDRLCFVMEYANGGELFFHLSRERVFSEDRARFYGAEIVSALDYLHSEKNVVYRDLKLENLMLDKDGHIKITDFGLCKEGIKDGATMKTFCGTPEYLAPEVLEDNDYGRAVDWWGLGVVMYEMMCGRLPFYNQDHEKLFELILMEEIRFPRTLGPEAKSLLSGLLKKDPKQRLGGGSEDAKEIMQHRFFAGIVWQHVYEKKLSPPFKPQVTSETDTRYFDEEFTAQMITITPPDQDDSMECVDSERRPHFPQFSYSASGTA

phosphate incorporated into peptide: 24.6±3.7 nmol phosphate/mg
Substance: 1174RIRTQSFSLQERHLRGAVPWA1194 (listed as Bos sp.) [wild-type peptide]
